Tests used:
[1] = target: SARS-CoV-2 Wuhan-Hu-1 NTD (SARS-CoV-2, UniProt P0DTC2 14-307); test: cell-based or functional assay
[2] = target: T1, SARS-CoV-2 Wuhan-Hu-1 RBD (SARS-CoV-2, Wuhan-Hu-1 (GenBank …, UniProt P0DTC2)); test: BLI; conditions: both partners purified
[3] = target: T1, SARS-CoV-2 Wuhan-Hu-1 RBD; test: cell-based or functional assay

Binder	neutralisation IC50, WT (293TAce2) [1]	binding result [2]	neutralisation IC50, Wuhan-Hu-1 pseudovirus [3]
JN010 (antibody, V domains shown) VH: EVQLVESGGDLIQPGGSLKLSCAASGVTVSSNYMTWVRQAPGKGLEWVSLIYSGGSTFYADSVKGRFTISRDNSKNTLYLLMNSLRVEDTAVYYCARDLRYYGMDVWGQGTTVTVSS VL: QTVVTQEPSFSVFPGGTVTLTCGLSSGSVSTNNYPTWYQQTPGQPPRTLIYSTDTRSSGVPDRFFGSILGNKAALTITGTQADDESHYYCVLLVGSGANAKWVFGGGTKLTVL	> 1 µg/mL	–	–
JR150 (antibody, V domains shown) VH: QVQLVQSGAEVKKPGASVKVSCKASRYTFASYYMHWVRQAPGQGLEWMGIINPGGGSTSYAQNFQGRVSMTSDTSTSTVYMELRSLRSEDTAVYYCARDSEFVPTAHGAFEIWGQGTMVTVSS VL: EIVLTQSPATLSLSPGERATLSCRASQSVSSYLAWYQQKPGQAPRLLIYDASNRATGIPARFSGSGSGTDFTLTISSLEPEDFAVYYCQQRSNWLVTFGGGTKVEIK	–	binds	> 1 µg/mL
JR154 (antibody, V domains shown) VH: EVQLVESGGGLVQPGRSLRLSCEASGFIFDDYAMHWVRQGPGKGLEWVSGITSNSGSMGYADSVKGRFTISRDNAKNSLYLQMNSLRPEDTAFYYCAKDMVSGVFLWFGELENWGQGTLVTVS VL: QSVLTQPPSASGTPGQRVTISCYGSRSNFGTNTVNWYQQLPGMAPRLLIHSHNQRPSGVPARFSGSKSGTSASLAISGLQSEDEAHYYCASWDGGLNAVVFGGGTKLIVL	–	binds	> 1 µg/mL
JR204 (antibody, V domains shown) VH: QVQLQESDPGLVTPSETLSLTCTVSGASVSSGSDYWNWIRQPPGKGLEWIGYIYYTGRTNYNPSLKSRVTISVDTSKNQFSLKLSSVTAADTAVYYCAREVIVLPAALPPFGLDVWGQGTTVTVSS VL: SYELTQPPSVSVAPGKTARITCGGNNIGTKSVHWYQQKPGQAPVLVVYDDSDRPSGIPERFSGSNSENTATLTISRVEAGDEADYSCQVWDSSGDHVVFGGGTKLTVL	–	binds	> 1 µg/mL
JN007 (antibody, V domains shown) VH: EVQLVESGGGLIQPGGSLRLSCAASGFTVSSNYMSWVRQAPGKGLEWVSVIYTGGSTYYADSVKGRFTISRDNSNNSLYLRMNSLRAEDTAVYYCARGPYYDFRSGYSPGWFDPWGQGTLVTVSS VL: not shown	> 1 µg/mL	–	–
JN117 (antibody, V domains shown) VH: QVQLVQSGAEVKKPGASVKVSCKASGYTFTSYDINWVRQATGQGLEWMGWMNPNSGNTGYAQKFQGRVTMTRNTSISTAYMELSSLRSEDTAVYYCALGTTPWYYFDYWGQGTLVTVSS VL: SYELTQPPSVSVSPGQTARITCSGDALPKQYAYWYQQKPGQAPVLVIYKDSERPSGIPERFSGSSSGTTVTLTISGVQAEDEADYYCQSADSSGTYVFGTGTKVTVL	> 1 µg/mL	–	–
JR325 (antibody, V domains shown) VH: QVQLQESGPGLVKPSQTLSLTCTVSGGSISSSDYYWSWIRQHPGKGLEWIGFIFYSGTTYYSPALKSRVSISVDTSKSQFSLKLHSVTAADTAVYYCARFSRNLGLNWFDPWGQGTLVTVSS VL: QFVLTQPASVSGSPGQSITISCTGTSSDIGSYDLVSWYQQYPGKAPKLIIYEVNKRPSGVSSRFSGSKSGNTASLTISGLLAEDEADYYCCSYAGPNTVLFGGGTILTV	–	binds	> 1 µg/mL
JR195 (antibody, V domains shown) VH: EVQLVESGGGLVQPGRSLRLSCAASGFTFDDYTMHWVRQAPGKGLEWVSAISWNSDALGYADSVKGRFTISRDNAKNSLYLQMNSLRPEDTALYYCAKDIDFGGSGSFDVFHIWGHGTMVTVS VL: not shown	–	binds	> 1 µg/mL
JR078 (antibody, V domains shown) VH: VQLVESGGGVVQPGRSLRLSCAASGFIFRSYGMNWVRQAPGKGLEWVAVMSYDGNDKDYADSVKGRFTISRDDSKNTLYLQMNSLRAEDTAVYYCAKSGGLYCSGGNCYSNYFDYWGRGTLVTVSS VL: EIVLTQSPGTLSLSPGERATLSCRASQSVSSSYLAWYQQKPGQAPRLLISGASSRAAGIPDRFSGSGSGTDFTLTISRLAPEDFAVYYCQQYGYSLTFGGGTKVEIK	–	binds	> 1 µg/mL
JN115 (antibody, V domains shown) VH: QVQLVQSGAEVRKPGASVKVSCKVSGYTLIDLSIHWVRQAPGKGLEWMGGFDPEDGETIYAQKFQGRVTMTEDTSTDTAYMELSSLRSEDTAVYYCATSSSIVISGWFDPWGQGTLVTVSS VL: QSALTQPASVSGSPGQSITISCTGTSSDVSGYNYVSWYQQHPGKVPKLLIYDVSNRPSGVSNRFSGSKSGNTASLTISGLQAEDEADYYCSSYTSSSTLVYVFGTGTKVTVL	> 1 µg/mL	–	–
JR072 (antibody, V domains shown) VH: VQLVESGGGVVQPGRSLRLSCAASGFTFSTYGMHWVRQAPGKGLEWVAGISYDGSDKYYGDSVRGRFTVSRDNSKNTLYLQMNSLRAEDTAVYYCAKGQGPYCSAGNCYTHYFDYWGQGTLVTVSS VL: EIVLTQSPATLSLSPGERATLSCRASQSVGNYLAWYQQKPGQAPRLLIDDASNRAAGTPARFSGSGSGTDFTLTISSLEPEDFAVYYCQQRSNWPPITFGQGTRLEIK	–	binds	> 1 µg/mL
JN105 (antibody, V domains shown) VH: QVQLVQSGAEVKKPGASVKVSCKASGYTFTSYGISWVRQAPGQGLEWMGWISAYNGNTNYAQKLQGRVTMTTDTSTSTAYMELRSLRSDDTAVYYCARDLQRAGPWADYDFWSGYYPPSNMDVWGQGTTVTVSS VL: not shown	> 1 µg/mL	–	–
JN110 (antibody, V domains shown) VH: QVQLVQSGAEVKKPGSSVKVSCKASGGTFSSYAISWVRQAPGQGLEWMGGIIPIFGTANYAQKFQGRVTITADKSTSTAYMELSSLRSEDTAVYYCARDPAFYYDILTGYGGYYYYGMDVWGQGTTVTVSS VL: DIVMTQTPLSLSVTPGQPASISCKSSQSLLHSDGKTYLYWYLQKPGQPPQLLIYEVSNRFSGVPDRFSGSGSGTDFTLKISRVEAEDVGVYYCMQSIQLPPTFGQGTKVEIK	> 1 µg/mL	–	–
JR340 (antibody, V domains shown) VH: EVQLVESGGGLVQPGRSLRLSCTASGFTFHDYALQWVRQVPGKGLEWVSGISWNSASTGYADSVKGRFTISRDNAKNSLYLQMNSLRAEDTALYYCAKVRSTSCYLACGMDVWGQGTTVTVSS VL: QSALTQPASVSGSPGQSITISCTGTSSDVGSYNLVSWYQQHPGKAPKLMISEVSKRPSGVSNRFSGSKSGNTASLTISGLQAEDEADYYCCSYALSRILFGGGTKLTVL	–	binds	> 1 µg/mL
JN103 (antibody, V domains shown) VH: EVQLVKSGGGLIQPGGSLRLSCAASGFTVSSNYMSWVRQAPGKGLEWVSVIYSGGSTYYADSVKGRFTISRDNSKNTLYLQMNSLRAEDTAVYYCARDLYSSGGTDIWGQGTMVTVSS VL: QTVVTQEPSFSVSPGGTVTLTCGLTSGSVSTSHYPSWYQQTPGQAPRTLIDSTNIRSFGVPDRFSGSILGNKAALTITGAQADDEADYYCILYVGNGIWMFGGGTRLTVL	> 1 µg/mL	–	–
JR069 (antibody, V domains shown) VH: EVQLVESGGGLVQPGGSLRLSCAASGFSFSNYDMLWLRQITGRGLEWVSLIGTSGDTYYSDSVKGRFTISRENGKNSLYLQMNRLRAGDTAVYYCARGNFDTSGFYSYFDTWGQGTLVTVSS VL: DIQLTQSPSYLSASVGDRVTITCRASQTIKNYLNWYQQKPGKAPKLLIYAVSTLQNGVSSRFRGSGSGTDFTLTISSLQPEDFATYYCQQSYTIPPYTFGQGTKLEIK	–	binds	> 1 µg/mL
JR077 (antibody, V domains shown) VH: EVQLVESGGGLVQPGGSLRLSCAASGFTFSDYDMHWVRQVTGKGLEWVSAVGTRGDTYYAASVKGRFTISRENAKNSLYLQMNSLRAGDTAVYYCARVGYDSTGFYYYFDYWGQGTLVTVSS VL: DIQLTQSPSSLSASVGDRVTITCRASQRIGRFLNWYQQKPGKAPKLLIYIVSSLQSGVPSRFSGSGSGTDFTLTINSLQPEDFATYYCQQTYNMPPITFGQGTRLEIK	–	binds	> 1 µg/mL
JN104 (antibody, V domains shown) VH: QVQLQESGPGLVKPSGTLSLTCAVSGGSISSNKWWSWVRQPPGKGLEWIGEIYHSGSTNYNPSLKSRVTISVDKSKNQFSLKLSSVTAADTAVYYCAILRYGSGSSLPPDNWGQGTLVTVSS VL: EIVMTQSPATLSVSPGERATLSCRASQIISNNLAWHQQKPGQAPRLLIYGASTRATGIPARFSGSGSGTEFTLTISSLQSEDFAVYYCQQYNNWPPLLTFGGGTKVEIK	> 1 µg/mL	–	–
JN109 (antibody, V domains shown) VH: QVQLVESGGGVVQPGRSLRLSCAASGFTFSSYGMHWVRQAPGKGLEWVAVIWYDGSNKYYADSVKGRFTISRDNSKNTLYLQMNSLRAEDTAVYYCARVRTIFRPLDYMDVWGKGTTVTVSS VL: not shown	> 1 µg/mL	–	–
JR068 (antibody, V domains shown) VH: QVQLQESGPGLVKPSQTLSLTCTVFGGSIRSGDYYWSWIRQPPGKGLEWMGYIYSSGSAYYNPSLESRVTISIDASKNQFSLKVNSVTAADTAVYYCARDGFWFGFGSFDIWGLGTMVTVSS VL: EIVMTQSPATLSVSPGERAALSCRASQSVSSNLAWYQQRVGQAPRLLIYGASTRATGIPARFSGSGSGTEFTLTISSLQSEDFAVYYCQQYNNWPPLTFGGGTKVEIK	–	binds	> 1 µg/mL

Reference: article PMC9253517 (The Journal of Experimental Medicine, 2022)
